Measurements taken from PMC5993284, “Peptide inhibitors of the anaphase promoting-complex that cause sensitivity to microtubule poison” (PLoS ONE, 2018).
“Also recorded” adds a separate entry of the source.

Tests used:
[1] = test system: APC/C; experiment: Biotinylated peptide pull-down of purified APC/C, Western blot; format: binding, Saccharomyces cerevisiae; conditions: 20 μM biotinylated peptide, purified yeast APC/C, 1 h at 4 °C, streptavidin/Avidin beads, n = 3
Method: For APC/C purification, the APC/C which contain Cdc16-TAP-tag was isolated from 2 mL arrested yeast lysate by 120 μL IgG sepharose 6 Fast Flow beads (GE Healthcare Life Sciences) and incubate for 2 h at 4 °C on a rotating wheel. Beads were collected washed with 5 mL of APC/C wash buffer (200 mM Hepes pH8.0, 150 mM NaCl, 10% glycerol). Beads were resuspended in 150 μL of APC/C wash buffer contain 17.6 units of AcTEV protease (Invitrogen, Carlsbad, CA) at 4°C for 3 h with pipetting every 20 minutes. The purified APC/C was collected in the flow-through.
For APC/C binding assays, 20 μM biotinylated peptides or 20 μM peptides only as a negative control were incubated with purified APC/C and 100 μL APC/C wash buffer which contains phosphatase inhibitors (200 mM Hepes pH 8.0, 150 mM NaCl, 10% glycerol, 10 mM NaF, 1 mM NaVO4, 5 mM Na-pyrophosphate, 10 mM 2-glycerol phosphate) for 1 h at 4 °C. The mixtures were applied to 120 μL streptavidin beads (Dynabeads MyOne Streptavidin T1, Invitrogen) for 30 min at 4 °C with gentle pipetting every 10 min. Beads were washed with 1 mL of PBST buffer (Phosphate buffer saline and 0.1% Tween 20) three times SDS-PAGE protein sample was added directly. For APC/C binding competition experiments, the biotinylated peptide and 10-fold excess non-biotinylated peptides were added to purified APC/C at same time.
Free D-biotin in 10% DMSO was used for the control binding assays. For pre-coating APC/C with biotin, a modified APC/C purification was performed. 2 mL yeast lysate was incubated with 120 μL IgG Sepharose beads and additional 20.4 μM free biotin or non-biotin solvent as a positive control was added and samples were incubated for 2 h at 4 °C on a rotating wheel. Purified pre-coated APC/C was then removed from the IgG Sepharose following the standard purification procedure. 20 μM biotinylated peptides or 20 μM peptides as a negative control were incubated with pre-coated APC/C and 100 μL APC/C wash buffer which contain phosphatase inhibitors for 1 h at 4 °C. In addition, 20 μM biotinylated peptide was added and incubated with pre-coated APC/C in a non-biotin containing solvent as positive control. Pre-coated APC/C binding procedures were same as above. For pre-coating streptavidin beads with biotin, streptavidin beads were washed in the presence of 10.2 nmol/mL D-biotin in PBST buffer or non-biotin solvent as a positive control before use. Pre-coated streptavidin beads were incubated with purified APC/C-peptide complexes with an extra […] biotin for 30 minutes with gentle pipetting every 10 min at 4 °C.
Proteins were separated in SDS-PAGE gels and then were transferred to PVDF membrane. Blocking was performed by incubating samples in 20 mL PBST with 5% milk at 4 °C. Rabbit anti-tap (Thermo, CAB1001) was used as primary antibodies at a 1:1000 dilution and incubated for 2 hours at RT. Anti-rabbit HRP (Jackson, USA) was then used as secondary antibody at 1:5000 dilution and incubate for 1 hr at RT. Chemiluminescence signals were detected using an ImageQuant LAS 4000 (GE Healthcare Bio-Sciences, USA). For cell cycle timing Western blots anti-MYC and anti-Actin antibodies were employed (ABCAM, UK).

[2] = target: T1, APC/C^Cdc20 (Saccharomyces cerevisiae, UniProt P16522+P53886); experiment: biochemical; format: biochemical; conditions: 220 μM peptide; 35S-Pds1 substrate; time course 0-60 minutes; vs buffer only; n = 3
T1 construct: constructed within full-length Cdc20 by site-directed mutagenesis for analysis in vitro in the APC/C^Cdc20 assay; The APC/C was purified for enzyme assays from 1 mL of TAP-tagged Cdc16 yeast extract (SCSY51); made in house; host or cells: Cdc20: in vitro transcription/translation in rabbit reticulocyte lysate, used unpurified; APC/C: S. cerevisiae strain SCSY51 (Cdc16-TAP) extract, captured on IgG magnetic beads
Summary of the method: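 Bead-bound TAP-Cdc16 yeast APC/C was mixed with IVT-made Cdc20 or Cdh1, pre-incubated 1 h at rt with checkpoint proteins or inhibitor peptides, plus pre-charged E1/E2/ATP/ubiquitin and ^35S-Pds1 in 20 mM HEPES pH 8.0, 100 mM NaCl, 1 mM MgCl2. Time points were stopped in SDS buffer and resolved by SDS-PAGE.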

[3] = test system: APC/C^Cdh1; experiment: APC/C^Cdh1 enzyme assay (ubiquitination of 35S-Pds1); format: biochemical, Saccharomyces cerevisiae; conditions: 220 μM peptide; 35S-Pds1 substrate; time course 0-60 minutes; vs buffer; n = 3
Method: Full-length, radio-labeled protein purifications were preformed as previously described. ^35S-Pds1 was prepared in a 500 μL IVT/T (In Vitro Transcription/Translation) reaction (Promega, USA), which contained 400 μL rabbit reticulocyte lysate, 20 μL of L-^35S-methionine (PerkinElmer, USA), 10 μg of plasmid DNA, and the remaining volume as nuclease-free ddH2O as recommended by the manufacturer. The reaction mixture was incubated for 2 hours at room temperature and gently mixed every 30 minutes. The reaction was added to pre-equilibrated IgG Sepharose beads (GE Healthcare, USA) in Bio-spin disposable chromatography columns (Bio-Rad, USA) for binding for 2 hours at room temperature. To ensure efficient binding, the beads were re-suspended several times every 30 minutes. After binding, the beads were washed with 5 mL wash buffer, containing 200 mM 4-(2-hydroxyethyl)-1-piperazineethanesulfonic acid (HEPES) at pH 8.0, 150 mM NaCl, 10% (v/v) glycerol, and 1 mM dithiothreitol (DTT). The ^35S-Pds1 was cleaved from the beads using TEV (Tobacco Etch Virus) protease in 1x TEV buffer (Invitrogen, USA) for 2 hours at room temperature, and the mixture was re-suspended several times every 30 minutes to promote efficient cleavage. The elution was collected and concentrated by employing an Amicon Ultra filter column (Millipore, Ireland). The concentrated ^35S-Pds1 was collected in a new tube, and stored at -20 °C.
(§1) The production of Cdc20 or Cdh1 was prepared by IVT/T reactions, where 16 μL of rabbit reticulocyte lysate, 20 μM L-methionine, 0.4 μg of plasmid DNA, and a volume of nuclease-free ddH2O for a total volume of 20 μL. This freshly synthesized Cdc20 or Cdh1 protein was used directly in all APC/C assays after a 1-hour synthesis reaction at room temperature. The APC/C was purified for enzyme assays from 1 mL of TAP-tagged Cdc16 yeast extract (SCSY51) where extract was mixed with 50 μL 50:50 slurry magnetic beads (Invitrogen, Norway) for 2 hours at 4 °C. After incubation, the beads were washed with 3 mL APC/C wash buffer (200 mM of HEPES, 150 mM of NaCl and 10% (v/v) of glycerol). APC/C bound to IgG magnetic beads was used directly in the enzyme assays.
APC/C assays were performed by adding the reaction contents in following order: 4.3 μL of QAH buffer, 20 μL of rabbit reticulocyte lysate containing Cdc20 or Cdh1 with or without an additional volume of recombinant checkpoint protein(s) or inhibitor peptides, 2.4 μL ubiquitin aldehyde (Boston Biochem, USA), APC/C, 16 μL pre-charged E1/E2/ATP/ubiquitin mix, and 13.3 μL of ^35S-Pds1 with QAH buffer (20 mM HEPES at pH 8.0, 100 mM NaCl, and 1 mM MgCl2). […]

[4] = test system: APC/C; experiment: APC/C activity promoted by mutant Cdc20 alleles in the presence of Mad2 (Pds1 remaining); format: biochemical, Saccharomyces cerevisiae; conditions: 5.0 μM Mad2, n = 3
Method: as §1
APC/C assays were performed by adding the reaction contents in following order: 4.3 μL of QAH buffer, 20 μL of rabbit reticulocyte lysate containing Cdc20 or Cdh1 with or without an additional volume of recombinant checkpoint protein(s) or inhibitor peptides, 2.4 μL ubiquitin aldehyde (Boston Biochem, USA), APC/C, 16 μL pre-charged E1/E2/ATP/ubiquitin mix, and 13.3 μL of ^35S-Pds1 with QAH buffer (20 mM HEPES at pH 8.0, 100 mM NaCl, and 1 mM MgCl2). The E1/E2/ATP/ubiquitin mix were pre-charged by mixing 1 μL of E1 (Boston Biochem, USA), 1 μL of E2 (Boston Biochem, USA), 14.4 μL of ATP, 14.4 μL of […] (Boston Biochem, USA), and 17.2 μL of QAH buffer and incubated for 15 minutes at room temperature. Approximately 15 μL of samples were taken out at each time point, and the reaction was stopped by the addition of 2x protein sample buffer (125 mM Tris-HCl pH 6.8, 4% SDS, 20% glycerol, and 0.002% bromophenol blue, with 10% (final v/v) 2-mercaptoethanol added in fresh directly before use).
For inhibitor titration and time-course experiments, recombinant Bub3, Mad2, Mad3, and the Mad3-Bub3 complex were expressed and purified as previously described. Inhibitory peptides were synthesized by standard procedures and purified to 99% purity by HPLC (Kelowna International Scientific Inc., Taiwan). For inhibition of APC/C the co-factor Cdc20 or Cdh1 was made fresh by IVT/T, and pure recombinant checkpoint proteins or inhibitor peptides were added to the IVT/T mixture and incubated for an additional hour at room temperature. In titrations, a dilution series of the checkpoint protein(s) were made before incubation with the Cdc20 co-factor. […]
Our first goal was to measure the ability of the mutant alleles to promote APC/C activity in vitro. To ensure any observed change in APC/C activity reflected a change in function, and not a change in the amount of Cdc20 co-factor protein produced by IVT/T, the amounts of Cdc20 protein produced by IVT/T was measured, and no significant difference was observed (S4 Table). […]

Molecule	binding to APC/C (in words) [1]	inhibition of APC/C^Cdc20 activity (in words) [2]	inhibition of APC/C^Cdh1 activity (in words) [3]	ability of mutant Cdc20 to promote APC/C activity in the presence of Mad2 (in words) [4]	ability of mutant Cdc20 to promote APC/C activity in the presence of Mad2 (in words) ([4]; listed as Cdc20-106)
hp31: 39 amino acid residue human peptide derived from human p31^comet amino acid residues 219–258 (RNCGEDWFRPKLNYRVPSRGHKLTVTLSCGRPSIRTTAWE; UniProt Q15013 219-258, looked up, fragment)	bound to budding yeast APC/C directly; also recorded: can pull-down budding yeast APC/C at 20 μM peptide	inhibited both budding yeast APC/C^Cdc20; also recorded: inhibits yeast APC/C^Cdc20	inhibited both budding yeast APC/C^Cdc20 (Fig 13B) and APC/C^Cdh1; also recorded: inhibits yeast APC/C^Cdh1		
Cdc20-106 (P209Q): spindle checkpoint by-pass mutant allele of Cdc20, P209Q (protein) MPESSRDKGNAAISGNRSVLSIASPTKLNILSSDWSRNQGKVSKNSLKRSSSLNIRNSKRPSLQASANSIYSRPKITIGAPPLIRRDSSFFKDEFDAKKDKATFSAYSSRSYPTIGSESVVSQTSLSQPTTSREVDEQFTVAADRYIPILQGASQNKVDPETLHEALPPPNASPISHLRAQTKIVFKQNVAEACGLDMNKRILQYMPEQPKCSSLRQKSYIMKKRTHYSYQQEQKIPDLIKLRKINTNPERILDAPGFQDDFYLNLLSWSKKNVLAIALDTALYLWNATTGDVSLLTDFENTTICSVTWSDDDCHISIGKEDGNTEIWDVETMSLIRTMRSGLGVRIGSLSWLDTLIATGSRSGEIQINDVRIKQHIVSTWAEHTGEVCGLSYKSDGLQLASGGNDNTVMIWDTRTSLPQFSKKTHTAAVKALSWCPYSPNILASGGGQTDKHIHFWNSITGARVGSINTGSQVSSLHWGQSHTSTNGGMMNKEIVATGGNPENAISVYNYETKFKVAEVVHAHEARICCSQLSPDGTTLATVGGDENLKFYKIFDPRCTGRSREDGLMDGMLGLIGKEGCRTNDKENRSKNSSEIHTRRPSSTSQYLIR				consistently displayed APC activity in the presence of Mad2	promote APC/C activity at the same level as control reactions even in the presence of 5.0 μM Mad2
